In this data set the test system is Escherichia coli TOP10. The data set is described as follows: shrunken log2 fold change of peptide-encoding DNA abundance (4.5 h post-induction vs induction); higher = less antimicrobial activity (less host growth inhibition). Particulars: time post-induction: 4.5 h; library: site-saturation at positions 5, 18, 19, 20.
For the sequence RRIRTRPPRLPRPRPRPMRPPRP, the “shrunken log2 fold change” value is 0.93. In the case of RRIRTRPPRLPRPRPRPAMEPRP, the “shrunken log2 fold change” value was -0.0176. RRIRCRPPRLPRPRPRPTCHPRP: the “shrunken log2 fold change” value stood at 0.0303.

In the case of RRIRLRPPRLPRPRPRPWWHPRP, the “shrunken log2 fold change” value turned out to be 0.0812.

With RRIRWRPPRLPRPRPRPLWRPRP, the “shrunken log2 fold change” value was found to be 3.71. Next, RRIRIRPPRLPRPRPRPQGAPRP: 0.0368; RRIRMRPPRLPRPRPRPPYAPRP: 0.291; RRIRFRPPRLPRPRPRPYTLPRP: -1.21. In the case of RRIRKRPPRLPRPRPRPAEIPRP, the “shrunken log2 fold change” value is -0.119.

Regarding RRIRRRPPRLPRPRPRPYQGPRP, the “shrunken log2 fold change” value is -0.00892.

For RRIRQRPPRLPRPRPRPGMAPRP, the “shrunken log2 fold change” value turned out to be 0.0366.

Regarding RRIRWRPPRLPRPRPRPPAAPRP, the “shrunken log2 fold change” value is 0.913. To RRIRCRPPRLPRPRPRPYANPRP belongs -0.0471; to RRIRDRPPRLPRPRPRPNLHPRP, -0.0379.

For RRIRLRPPRLPRPRPRPVGTPRP, the “shrunken log2 fold change” value stood at 0.00938. Next, RRIRWRPPRLPRPRPRPYSLPRP: -0.201. To RRIRNRPPRLPRPRPRPEEAPRP belongs 0.612.

For RRIRKRPPRLPRPRPRPQILPRP, the “shrunken log2 fold change” value is -0.144. Next, RRIRGRPPRLPRPRPRPLLDPRP: 2.07; RRIRGRPPRLPRPRPRPLTSPRP: 0.167. Next, RRIRTRPPRLPRPRPRPCHDPRP: -0.215; RRIRLRPPRLPRPRPRPLHEPRP: -0.00702; RRIRARPPRLPRPRPRPNYHPRP: -0.425. With RRIRIRPPRLPRPRPRPTMAPRP, the “shrunken log2 fold change” value was -0.445.

Turning to RRIRQRPPRLPRPRPRPSCIPRP, the “shrunken log2 fold change” value is -0.238. Take RRIRHRPPRLPRPRPRPTGSPRP: the “shrunken log2 fold change” value was 0.0528. To RRIRVRPPRLPRPRPRPHEVPRP belongs -0.0408; to RRIRWRPPRLPRPRPRPLSWPRP, 0.0993; to RRIRWRPPRLPRPRPRPWKWPRP, -0.0893. To RRIRDRPPRLPRPRPRPPTGPRP belongs 0.522. To RRIRARPPRLPRPRPRPNNFPRP belongs -0.236.

For the sequence RRIRHRPPRLPRPRPRPFIQPRP, the “shrunken log2 fold change” value was -0.577.

Regarding RRIRVRPPRLPRPRPRPMSVPRP, the “shrunken log2 fold change” value is 0.0581. In the case of RRIRIRPPRLPRPRPRPLCQPRP, the “shrunken log2 fold change” value came out at 0.127. Next, RRIRHRPPRLPRPRPRPYGGPRP: -0.91; RRIRWRPPRLPRPRPRPAYEPRP: -0.0308; RRIRNRPPRLPRPRPRPCILPRP: -0.119. Turning to RRIRQRPPRLPRPRPRPIPVPRP, the “shrunken log2 fold change” value is -0.221. To RRIRQRPPRLPRPRPRPVLKPRP belongs -0.108; to RRIRDRPPRLPRPRPRPRKLPRP, 0.0892; to RRIRMRPPRLPRPRPRPVLEPRP, 0.426. Next, RRIRPRPPRLPRPRPRPDKKPRP: -0.429; RRIRRRPPRLPRPRPRPAAAPRP: 0.941; RRIRDRPPRLPRPRPRPEWFPRP: 0.257. To RRIRLRPPRLPRPRPRPQYGPRP belongs 0.0165.

RRIRRRPPRLPRPRPRPTELPRP: the “shrunken log2 fold change” value turned out to be 0.42.

On to RRIRSRPPRLPRPRPRPSQLPRP, for which the “shrunken log2 fold change” value was -0.302.

For the sequence RRIRGRPPRLPRPRPRPWAKPRP, the “shrunken log2 fold change” value was -0.0167. Next, RRIRRRPPRLPRPRPRPDDWPRP: 0.359; RRIRMRPPRLPRPRPRPLSPPRP: 0.345. For RRIRFRPPRLPRPRPRPDTEPRP, the “shrunken log2 fold change” value was -0.776. Next, RRIRVRPPRLPRPRPRPRILPRP: -0.412; RRIRTRPPRLPRPRPRPQLTPRP: -0.0274; RRIRMRPPRLPRPRPRPFTFPRP: -0.096. On to RRIRLRPPRLPRPRPRPGDGPRP, for which the “shrunken log2 fold change” value turned out to be 0.869. With RRIRMRPPRLPRPRPRPAAGPRP, the “shrunken log2 fold change” value was 1.56. Regarding RRIRWRPPRLPRPRPRPDTFPRP, the “shrunken log2 fold change” value is -0.0255. To RRIRPRPPRLPRPRPRPNTFPRP belongs -0.0232; to RRIRRRPPRLPRPRPRPEVIPRP, -0.0658. On to RRIRMRPPRLPRPRPRPVNVPRP, for which the “shrunken log2 fold change” value is 0.0663. In the case of RRIRPRPPRLPRPRPRPSESPRP, the “shrunken log2 fold change” value came out at 0.000106. Next, RRIRSRPPRLPRPRPRPFNFPRP: -0.112.

The values above are taken from the supplement of paper PMC9112550, “Optimization of the antimicrobial peptide Bac7 by deep mutational scanning” (BMC Biology, 2022).
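Further: peptides expressed intracellularly from a pBAD plasmid library in pooled LB shake-flask culture, induced with 0.3% L-arabinose, DNA abundance read by NGS, three biological replicates, DESeq2 with apeglm shrinkage.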
